Where no end group is shown, it is not given here.
Molecular target: T1, mCerulean-tagged GIPC (human, UniProt O14908 1-333)
T1 sequence (looked up): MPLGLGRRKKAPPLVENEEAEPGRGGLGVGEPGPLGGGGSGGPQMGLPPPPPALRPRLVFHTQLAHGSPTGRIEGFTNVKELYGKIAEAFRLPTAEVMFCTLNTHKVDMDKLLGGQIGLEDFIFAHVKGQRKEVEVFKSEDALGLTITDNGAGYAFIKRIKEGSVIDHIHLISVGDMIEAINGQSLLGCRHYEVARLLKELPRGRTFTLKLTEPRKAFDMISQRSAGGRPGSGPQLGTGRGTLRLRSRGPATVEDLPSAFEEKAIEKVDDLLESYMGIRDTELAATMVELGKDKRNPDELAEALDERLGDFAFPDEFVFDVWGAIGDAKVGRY
Experiment: FRET or BRET

- binding result: binds
Binder: QLPERAFRALPSGSGPGEVPTSRGLSSGTLPGPGNEASRELESYC (domain or fragment, human, UniProt P48546 422-466, looked up, also: mCitrine-tagged) [mCitrine-tagged GIPR C-tail, wild-type]
